{"source": "patent US20160039947A1", "about": "(Eli Lilly, published 2016)", "binders": {"B1": {"name": "Anti-Axl IgG1 (AxlG1) (antibody, V domains shown)", "VH": "EVQLVESGGGLVQPGGSLRLSCAASGFSLSGSWIHWVRQAPGKGLEWVGWINPYRGYAYYADSVKGRFTISADTSKNTAYLQMNSLRAEDTAVYYCAREYSGWGGSSVGYAMDYWGQGTLVTVSS", "VL": "DIQMTQSPSSLSASVGDRVTITCRASQDVSTAVAWYQQKPGKAPKLLIYSASFLYSGVPSRFSGSGSGTDFTLTISSLQPEDFATYYCQQSYTTPPTFGQGTKVEIKG", "notes": "also called anti-Axl antibody YW327.6S2 control IgG"}, "B2": {"name": "matuzumab IgG1 (mG1) (antibody, V domains shown)", "VH": "QVQLVQSGAEVKKPGASVKVSCKASGYTFTSHWMHWVRQAPGQGLEWIGEFNPSNGRTNYNEKFKSKATMTVDTSTNTAYMELSSLRSEDTAVYYCASRDYDYDGRYFDYWGQGTLVTVSS", "VL": "DIQMTQSPSSLSASVGDRVTITCSASSSVTYMYWYQQKPGKAPKLLIYDTSNLASGVPSRFSGSGSGTDYTFTISSLQPEDIATYYCQQWSSHIFTFGQGTKVEIKG", "notes": "also called matuzumab (anti-EGFR) control IgG"}, "B3": {"name": "HEDesign λλ (anti-HER-2/anti-EGFR IgG BsAb with Fab redesigns) (bispecific antibody)", "heavy 1": "EVQLVESGGGLVQPGGSLRLSCAASGFTFTDYTMDWVRKAPGKGLEWVADVNPNSGGSIYNQEFKGRFTLSVDRSKNTLYLQMNSLRAEDTAVYYCARNLGPSFYFDYWGQGTLVTVSSASTKGPSVFPLAPSSKSTSGGTAALGCLVKDYFPEPVTVSWNSGALTSGVATGPAVLQSSGLYSLSSVVTVPSSSLGTQTYICNVNHKPSNTKVDKKVEPKSCDKTHTCPPCPAPELLGGPSVFLFPPKPKDTLMISRTPEVTCVVVDVSHEDPEVKFNWYVDGVEVHNAKTKPREEQYQSTYRVVSVLTVLHQDWLNGKEYKCKVSNKALPAPIEKTISKAKGQPREPQVYTLPPSRDELTKNQVSLTCLVKGFYPSDIAVEWESNGQPENNYDTTPPVLDSDGSFFLYSDLTVDKSRWQQGNVFSCSVMHEALHNHYTQKSLSLSPG", "light 1": "RIQMTQSPSSLSASVGDRVTITCKASQDVSIGVAWYQDKPGKAPKLLIYSASYRYTGVPSRFSGSGSGTDFTLTISSLQPEDFATYYCQQYYIYPYTFGQGTKVEIKGQPKAAPSVTLFPPSSEELQANKATLVCYISDFYPGAVTVAWKADSSPVKAGVETTTPSKQSNNKYAAWSYLSLTPEQWKSHRSYSCQVTHEGSTVEKTVAPTEC", "heavy 2": "QVQLVQSGAEVKKPGASVKVSCKASGYTFTSHWMHWVRYAPGQGLEWIGEFNPSNGRTNYNEKFKSKATMTVDTSTNTAYMELSSLRSEDTAVYYCASRDYDYDGRYFDYWGQGTLVTVSSASTKGPSVFPLAPSSKSTSGGTAALGCLVKDYFPEPVTVSWNSGALTSGVHTFPAVLQSSGLYSLSSVVTVPSSSLGTQTYICNVNHKPSNTKVDKKVEPKSCDKTHTCPPCPAPELLGGPSVFLFPPKPKDTLMISRTPEVTCVVVDVSHEDPEVKFNWYVDGVEVHNAKTKPREEQYQSTYRVVSVLTVLHQDWLNGKEYKCKVSNKALPAPIEKTISKAKGQPREPQVYTLPPSRKELTKNQVSLTCLVKGFYPSDIAVEWESNGQPENNYKTTPPVLKSDGSFFLYSKLTVDKSRWQQGNVFSCSVMHEALHNHYTQKSLSLSPG", "light 2": "DIQMTQSPSSLSASVGDRVTITCSASSSVTYMYWYQRKPGKAPKLLIYDTSNLASGVPSRFSGSGSGTDYTFTISSLQPEDIATYYCQQWSSHIFTFGQGTKVEIKGQPKAAPSVTLFPPSSEELQANKATLVCLISDFYPGAVTVAWKADSSPVKAGVETTTPSKQSNNKYAASSYLSLTPEQWKSHRSYSCQVTHEGSTVEKTVAPTEC", "notes": "also called HE Designs"}, "B4": {"name": "HEDesign κλ (anti-HER-2/anti-EGFR IgG BsAb with Fab redesigns) (bispecific antibody)", "heavy 1": "B3 heavy 1", "light 1": "RIQMTQSPSSLSASVGDRVTITCKASQDVSIGVAWYQDKPGKAPKLLIYSASYRYTGVPSRFSGSGSGTDFTLTISSLQPEDFATYYCQQYYIYPYTFGQGTKVEIKRTVAAPSVFIFPPSDEQLKSGTASVVCYLNNFYPREAKVQWKVDNALQSGNSQESVTEQDSKDSTYSLWSTLTLSKADYEKHKVYACEVTHQGLSSPVTKSFNRGEC", "heavy 2": "B3 heavy 2", "light 2": "B3 light 2", "notes": "also called HE Designs"}, "B5": {"name": "HEDesign λκ (anti-HER-2/anti-EGFR IgG BsAb with Fab redesigns) (bispecific antibody)", "heavy 1": "B3 heavy 1", "light 1": "B3 light 1", "heavy 2": "B3 heavy 2", "light 2": "DIQMTQSPSSLSASVGDRVTITCSASSSVTYMYWYQRKPGKAPKLLIYDTSNLASGVPSRFSGSGSGTDYTFTISSLQPEDIATYYCQQWSSHIFTFGQGTKVEIKRTVAAPSVFIFPPSDEQLKSGTASVVCLLNNFYPREAKVQWKVDNALQSGNSQESVTEQDSKDSTYSLSSTLTLSKADYEKHKVYACEVTHQGLSSPVTKSFNRGEC", "notes": "also called HE Designs"}}, "key": {"hHGFR(cMet)-Fc": {"biological_target": "T1, hHGFR(cMet)-Fc (human, UniProt P08581 25-932)", "T1 construct": "Coated in the sandwich ELISA; second injection in SPR; not shown: Fc part of the bought fusion protein", "T1 sequence (P08581 25-932)": "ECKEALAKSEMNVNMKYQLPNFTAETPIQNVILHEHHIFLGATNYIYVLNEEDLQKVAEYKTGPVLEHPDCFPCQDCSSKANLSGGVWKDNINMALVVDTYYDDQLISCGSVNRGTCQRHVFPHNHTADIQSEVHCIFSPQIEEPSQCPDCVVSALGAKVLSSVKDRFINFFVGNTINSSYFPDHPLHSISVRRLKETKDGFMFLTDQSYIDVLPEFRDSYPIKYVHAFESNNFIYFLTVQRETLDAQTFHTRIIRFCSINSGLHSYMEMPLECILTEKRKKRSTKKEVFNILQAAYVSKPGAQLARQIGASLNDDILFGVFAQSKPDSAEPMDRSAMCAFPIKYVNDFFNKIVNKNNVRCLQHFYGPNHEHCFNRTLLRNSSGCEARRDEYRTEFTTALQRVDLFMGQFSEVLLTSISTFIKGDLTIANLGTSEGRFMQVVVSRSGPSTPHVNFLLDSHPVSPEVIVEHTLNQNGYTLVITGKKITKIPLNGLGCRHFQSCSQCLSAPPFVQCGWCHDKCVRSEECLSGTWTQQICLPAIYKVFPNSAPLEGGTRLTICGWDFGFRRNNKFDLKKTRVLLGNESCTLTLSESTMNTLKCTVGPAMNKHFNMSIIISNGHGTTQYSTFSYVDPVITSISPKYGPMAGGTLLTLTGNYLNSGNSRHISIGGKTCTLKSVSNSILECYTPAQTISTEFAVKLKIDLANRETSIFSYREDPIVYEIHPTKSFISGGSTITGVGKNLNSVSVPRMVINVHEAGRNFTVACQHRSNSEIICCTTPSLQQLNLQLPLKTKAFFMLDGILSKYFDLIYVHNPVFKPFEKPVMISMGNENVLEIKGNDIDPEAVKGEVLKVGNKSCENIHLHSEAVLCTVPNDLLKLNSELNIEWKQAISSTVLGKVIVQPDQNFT", "assay": "sandwich ELISA: hHGFR(cMet)-Fc coated, IgG, hAxl-Fc-biotin detection", "procedure": "(§1) Two sandwich ELISAs are developed, one for detecting anti-HER-2/anti-EGFR BsAb activity and one for detecting anti-cMET/anti-Axl BsAb activity. For both ELISAs, clear 96-well round bottom high binding Immulon microtiter plates (Greiner bio-one, cat#650061) are coated overnight at 2-8° C. with 50 μL/well 1 μg/mL hHER-2-Fc or 1 μg/mL hHGFR(cMet)-Fc (both from R&D systems) in a 50 mM Na₂CO₃ pH 8 buffer. The plates are washed 4 times with PB ST and blocked with 100 μL/well casein buffer (Pierce) for 1 hr at 37° C. The plates are then washed 4 times with PBST and the parental IgG controls or BsAb IgG test articles are added at 50 μL/well and 5 μg/mL and serially diluted 1:3 down the plate. The test articles are incubated on the plate for 1 hr at 37° C. The plates are then washed 4 times with PBST and 50 μL/well 0.2 μg/mL hEGFR-Fc-biotin or hAxl-Fc-biotin (both from R&D systems) is added for 1 hr at 37° C. The plates are then washed 4 times with PBST followed by the addition of a 50 μL/well streptavidin-HRP (Jackson Labs) diluted 1:2000 in PBST. The streptavidin-HRP is incubated in each well for 1 hr at 37° C. The plates are then washed 4 times with PBST and 100 μL/well 1-component TMB substrate is added (KPL laboratories). […] Absorbance (450 nm) of every well in the plates is read using a SpectraMax UV plate reader (Molecular Devices). […]"}, "hHER-2-Fc [1]": {"biological_target": "T2, hHER-2-Fc (human, UniProt P04626 23-652)", "T2 construct": "Coated unlabelled in the sandwich ELISA; biotinylated and captured on an SA chip in the SPR assay; also called human HER-2-Fc; hHER-2-Fc-biotin; not shown: Fc part of the bought fusion protein", "assay": "sandwich ELISA: hHER-2-Fc coated, IgG, hEGFR-Fc-biotin detection", "procedure": "as §1"}, "hHER-2-Fc [2]": {"biological_target": "T2, hHER-2-Fc", "assay": "sandwich ELISA: hHER-2-Fc coated, BsAb, hEGFR-Fc-biotin detection", "procedure": "(§2) Two sandwich ELISAs are developed, one for detecting anti-HER-2/anti-EGFR BsAb activity and one for detecting anti-cMET/anti-Axl BsAb activity. For both ELISAs, clear 96-well round bottom high binding Immulon microtiter plates (Greiner bio-one, cat#650061) are coated overnight at 2-8° C. with 50 μL/well 1 μg/mL hHER-2-Fc or 1 μg/mL hHGFR(cMet)-Fc (both from R&D systems) in a 50 mM Na₂CO₃ pH 8 buffer. The plates are washed 4 times with PB ST and blocked with 100 μL/well casein buffer (Pierce) for 1 hr at 37° C. The plates are then washed 4 times with PBST and the parental IgG controls or BsAb IgG test articles are added at 50 μL/well and 5 μg/mL and serially diluted 1:3 down the plate. The test articles are incubated on the plate for 1 hr at 37° C. The plates are then washed 4 times with PBST and 50 μL/well 0.2 μg/mL hEGFR-Fc-biotin or hAxl-Fc-biotin (both from R&D systems) is added for 1 hr at 37° C. The plates are then washed 4 times with PBST followed by the addition of a 50 μL/well streptavidin-HRP (Jackson Labs) diluted 1:2000 in PBST. The streptavidin-HRP is incubated in each well for 1 hr at 37° C. The plates are then washed 4 times with PBST and 100 μL/well 1-component TMB substrate is added (KPL laboratories). After approximately 10 minutes, […] 1% H₃PO₄ (in H₂O) is added to each plate to quench the reaction. Absorbance (450 nm) of every well in the plates is read using a SpectraMax UV plate reader (Molecular Devices). Biotin-labeling of the hEGFR-Fc and hAxl-Fc proteins is performed using EZ-Link Sulfo-NHS-LC-Biotin (Thermo Scientific) according to the manufacturer's protocol."}, "hEGFR-Fc": {"biological_target": "T3, hEGFR-Fc (human, UniProt P00533 25-645)", "T3 construct": "Biotin-labelled (EZ-Link Sulfo-NHS-LC-Biotin) as detection reagent in the ELISA; unlabelled second injection in SPR; also called hEGFR-Fc-biotin; not shown: Fc part of the bought fusion protein", "assay": "sandwich ELISA: hHER-2-Fc coated, BsAb, hEGFR-Fc-biotin detection", "procedure": "as §2"}}}
{"binder": "B1", "values": [{"measurement": "binding result", "setting": "hHGFR(cMet)-Fc", "value": "no binding (tested: 5 µg/mL, serially diluted 1:3)"}]}
{"binder": "B2", "values": [{"measurement": "binding result", "setting": "hHER-2-Fc [1]", "value": "no binding (tested: 5 µg/mL, serially diluted 1:3)"}]}
{"binder": "B3", "values": [{"measurement": "binding result", "setting": "hHER-2-Fc [2]", "value": "binds"}, {"measurement": "binding result", "setting": "hEGFR-Fc", "value": "binds"}]}
{"binder": "B4", "values": [{"measurement": "binding result", "setting": "hHER-2-Fc [2]", "value": "binds"}, {"measurement": "binding result", "setting": "hEGFR-Fc", "value": "binds"}]}
{"binder": "B5", "values": [{"measurement": "binding result", "setting": "hHER-2-Fc [2]", "value": "binds"}, {"measurement": "binding result", "setting": "hEGFR-Fc", "value": "binds"}]}
